# PMC11289891, “Selection and characterization of a peptide-based complement modulator targeting C1 of the innate immune system†” (RSC Chemical Biology, 2024)
# Positions of bridges follow the written chain, without caps; N, C: chain ends.
# Target: T1, C1q (full-length; ligand binding and scaffolding part of the C1 complex) (human (endogenous in human serum), UniProt P02745 23-245; P02746 28-253; P02747 29-245)
# T1 construct: complement C1q subunit A, human; complement C1q subunit B, human; complement C1q subunit C, human; In serum and in the bought C1 protein C1q stands in the C1 complex with the proteases C1r and C1s (C1r2s2); in the ELISAs it was detected with anti-C1q; also called gC1q (globular head domain of full-length C1q); source: endogenous, normal human serum (Complement Technology); purified C1 protein …
# Experiment: ELISA; titration of purified cL3-Bt bound to streptavidin-coated plates, 1% normal human serum in RPMI, 37 °C 1 hour, C1q detected with rabbit anti-C1q
# Conditions: one partner purified
# T1 sequence (P02745 23-245, chain 1 of 3): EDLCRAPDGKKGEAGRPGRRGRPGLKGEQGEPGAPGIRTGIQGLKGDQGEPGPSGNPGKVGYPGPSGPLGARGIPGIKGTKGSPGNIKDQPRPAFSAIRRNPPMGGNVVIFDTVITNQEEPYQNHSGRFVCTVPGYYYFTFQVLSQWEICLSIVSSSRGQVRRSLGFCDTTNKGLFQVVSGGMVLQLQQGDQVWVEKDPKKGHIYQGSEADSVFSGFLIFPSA
# T1 sequence (P02746 28-253, chain 2 of 3): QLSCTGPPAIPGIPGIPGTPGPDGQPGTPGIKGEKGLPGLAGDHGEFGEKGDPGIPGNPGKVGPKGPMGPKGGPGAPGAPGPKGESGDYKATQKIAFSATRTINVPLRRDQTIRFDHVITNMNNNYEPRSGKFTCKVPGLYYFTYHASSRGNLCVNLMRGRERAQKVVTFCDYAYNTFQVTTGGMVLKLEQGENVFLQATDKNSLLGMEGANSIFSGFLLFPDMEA
# T1 sequence (P02747 29-245, chain 3 of 3): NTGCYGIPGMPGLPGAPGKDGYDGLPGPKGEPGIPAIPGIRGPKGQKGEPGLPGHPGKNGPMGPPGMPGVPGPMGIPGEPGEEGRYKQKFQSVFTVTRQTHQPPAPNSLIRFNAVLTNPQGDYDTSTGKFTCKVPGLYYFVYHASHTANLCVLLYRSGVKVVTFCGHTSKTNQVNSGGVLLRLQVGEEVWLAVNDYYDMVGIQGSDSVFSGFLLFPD
binder,measurement,value
"{CH2CO}-YTVTFYPDPFTLQFIACGS-{K(biotin)} (thioether N-17) [cyclic-L3, biotinylated (cL3-Bt)]",EC50,~6 µM
